Assay results as given in US20140296491A1 (MILTENYI BIOTECH, published 2014).

What was measured:
[1] = biological target: T1, human CD8 on CD8+ cells of human PBMCs (human, UniProt P01732 22-235); experiment: phage display selection on hCD8a with EDTA elution, then clone screening
T1 construct: whole, on cells; Immunization and panning used recombinant hCD8a (Ser 22-Asp 182, His tag); The flow cytometry used native CD8 on PBMCs; also called hCD8; hCD8a
Experimental: Flow cytometry results of screened clones of library 2a from EDTA eluates after panning cycle IIb with triple depletion of Ca2+ independent hCD8a binders. After exclusion of dead cells and cell debris CD8+ cells were identified as a CD3+/CD4− cell population. hCD8-specific Fabs were detected by anti-polyhistidine-PE (anti-HIS-PE). Mean fluorescence intensities (MFI) of anti-HIS-PE staining were plotted to evaluate the influence of 10 mM EDTA. 75_A1 (uninoculated medium) and 75_C1 (anti-MUC1 scFv expressing clone) were negative controls, while 75_B1 (CD8 BW135/80) served as positive control. FIG. 7: MFI before and after addition of EDTA. FIG. 8: MFI ratio (−)EDTA/(+)EDTA. FIG. 9: Dot plots of clone KRR75_G1 before and after the addition of 10 mM EDTA.
Variations in panning process were tested to direct the selection towards Ca2+ dependent binding. […]
Clones generated by different selection procedures and stages were characterized upon hCD8 specificity and potential Ca2+ dependent binding. […] Supernatants of these cultures were analyzed for the presence hCD8 specific Fabs using a flow cytometric staining assay in the Ca2+ containing buffer HBSS (Hank's balanced salt solution) +0.5% BSA. […] Bound Fabs were detected via the polyhistidine tag of the Fab and an anti-polyhistidine tag-fluorochrome conjugate. […]

[2] = biological target: T1, human CD8 on CD8+ cells of human PBMCs; experiment: flow cytometry on human CD8+ cells, before and after EDTA
Experimental: FIGS. 10, 11, and 12 show flow cytometry results of screened clones after panning cycle IIIb. Flow cytometry results of screened clones (see 4.4.2.2) of library 1a and 2a from EDTA eluates after panning cycle IIIb. After exclusion of dead cells and cell debris CD8+ cells were identified as a CD3+/CD4− cell population. hCD8 specific Fabs were detected by anti-His-PE. Mean fluorescence intensities (MFI) of anti-His-PE staining were plotted to evaluate the influence of 10 mM EDTA on staining with certain Fab clones. 77_A1 (uninoculated medium) and 77_C1 (anti-MUC1 scFv expressing clone) were negative controls, while 77_B1 (CD8 BW135/80) served as positive control for hCD8 staining. FIG. 10: MFI before and after addition of EDTA. FIG. 11: MFI ratio (−)EDTA/(+)EDTA. FIG. 12: Dot plot of clone KRR77_D1 before and after the addition of 10 mM EDTA.
Clones generated by different selection procedures and stages were characterized upon hCD8 specificity and potential Ca2+ dependent binding. Therefore, Fab expressions of single clones were performed in a microtiter plate format (150 μL). Supernatants of these cultures were analyzed for the presence hCD8 specific Fabs using a flow cytometric staining assay in the Ca2+ containing buffer HBSS (Hank's balanced salt solution) +0.5% BSA. […] Bound Fabs were detected via the polyhistidine tag of the Fab and an anti-polyhistidine tag-fluorochrome conjugate. […]

T1 sequence (P01732 22-235): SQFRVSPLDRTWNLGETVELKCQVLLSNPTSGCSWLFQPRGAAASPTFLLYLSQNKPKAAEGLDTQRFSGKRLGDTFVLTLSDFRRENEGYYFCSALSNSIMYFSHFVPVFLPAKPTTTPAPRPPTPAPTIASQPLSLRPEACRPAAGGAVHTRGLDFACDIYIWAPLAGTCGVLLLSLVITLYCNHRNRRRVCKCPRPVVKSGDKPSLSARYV

binding result [1]	binding result [2]	Binder
binds		chimeric recombinant Fab CD8 KRR75_G1 (Fab, V domains shown, also called clone KRR75_G1) VH: EVQLQQSGPELVKPGASVKMSCKASGYTFTDYVISWMKQRTGQGLEWIGEIYPGSGSDYYNEKFKGKATLTADKSSNTAYMQLSSLTSEDSAVYFCARWGITDYFDVWGAGTTVTVSS VL: ETTVTQSPASLSMAIGEKVTIRCITSTDIDDDMNWYQQKPGEPPKLLISEGNTLRPGVPSRFSSSGYGTDFVFTIENMLSEDVADYYCLQSDNLPFTFGSGTKLEIK
	binds	chimeric recombinant Fab CD8 KRR77_D1 (Fab, V domains shown, also called clone KRR77_D1) VH: QVQLKESGPGLVQPSQSLSITCTVSGFSLTSYGVHWVRQSPGKGLEWLGVIWRGGSTDYNAAFMSRLSITKDNSKSQVFFKMNSLQADDTAIYYCAKNSITPFAYWGQGTLVTVSA VL: ETTVTQSPASLSMAIGEKVTIRCITSTDIDDDMNWYQQKPGEPPKLLISEGNTLRPGVPSRFSSSGYGTDFVFTIENMLSEDVADYYCLQSDNLPFTFGSGTKLEIK
